Experimental data: US20130323248A1

What was measured:
[1] = molecular target: Recombinant Human DLL4 (human) (UniProt Q9NR61); test: Biacore SPR
[2] = molecular target: human DLL-4 expressed on the surface of CHO-K1 cells (CHO-DLL-4 cells) (human) (UniProt Q9NR61); test: flow cytometry competition; 20 ug/ml FITC-rhNotch-1 on CHO-DLL-4 cells, increasing antibody concentrations
[3] = molecular target: human DLL-4 expressed on the surface of CHO-K1 cells (CHO-DLL-4 cells) (human) (UniProt Q9NR61); test: flow cytometry (HTFC) on CHO-K1 cells stably expressing DLL-4

Ka [1] [M⁻¹] | Kd [1] [nM] | IC50 [2] [nM] | EC50 [3] [nM] | Substance
5.86e+08 | 1.71 | – | – | 21M18
– | – | 1.72 | 1.7 | anti-DLL-4 antibody OMP21M18 (Oncomed)
